Legend:
soluble PD-L1 [1] = biological target: soluble PD-L1 (UniProt Q9NZQ7); experiment: cell binding (H9 cells); printed as pg/ul
soluble PD-L1 [2] = biological target: T1, soluble PD-L1 (UniProt Q9NZQ7 19-238, limits assumed); experiment: competitive binding assay: mixed H9 cells expressing PD1(WT):CD28 (cell trace violet positive) and PD1(A99L):CD28 (negative), incubated with soluble PD-L1 (0.02 pg/uL to 20 ng/ul) for 30 min, streptavidin-APC, flow cytometry
T1 construct: also called PD1-L1
T1 sequence (Q9NZQ7 19-238 limits assumed): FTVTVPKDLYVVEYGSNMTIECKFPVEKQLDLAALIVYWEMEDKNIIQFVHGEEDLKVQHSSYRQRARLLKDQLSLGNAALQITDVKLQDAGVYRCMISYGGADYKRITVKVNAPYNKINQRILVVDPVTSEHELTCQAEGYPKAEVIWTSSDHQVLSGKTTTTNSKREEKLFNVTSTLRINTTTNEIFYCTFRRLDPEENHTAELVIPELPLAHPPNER
Description: A competitive binding assay was performed to determine relative binding affinity between PD1 chimeric polypeptides, in particular PD1(WT):CD28 polypeptide, and the PD1(A99L):CD28 polypeptide.
A population of H9 cells containing PD1(WT):CD28 polypeptide were labeled with cell trace violet were mixed with a population of H9 cells containing PD1(A99L):CD28 polypeptide. The cells were then incubated with soluble PD-L1 (0.02 pg/uL to 20 ng/ul) for 30 min and then stained with streptavidin-APC. The two populations were separated out by flow analysis into cell trace violet positive (H9 cells containing PD1(WT):CD28 polypeptide) and cell trace violet negative (H9 cells containing PD1(A99L):CD28 polypeptide) populations. The populations were analyzed for APC positivity.

Chain of soluble PD-L1 (UniProt Q9NZQ7) (Q9NZQ7 19-238): as the sequence (Q9NZQ7 19-238 limits assumed) above

Molecule	Kd (soluble PD-L1 [1])	fold binding affinity relative to PD1(WT):CD28 polypeptide (soluble PD-L1 [2])
PD1(A99L):CD28 polypeptide	0.0033 µg/mL	–
PD1(WT):CD28 polypeptide	0.029 µg/mL	–
PD1(A99L):CD28 polypeptide (receptor, Position 99 is not counted from the initiating Met of the encoded open reading frame, where the changed alanine appears to lie near position 132) LDSPDRPWNPPTFSPALLVVTEGDNATFTCSFSNTSESFVLNWYRMSPSNQTDKLAAFPEDRSQPGQDCRFRVTQLPNGRDFHMSVVRARRNDSGTYLCGAISLAPKLQIKESLRAELRVTERRAEVPTAHCPSPLFPGPSKPFWVLVVVGGVLACYSLLVTVAFIIFWVRSKRSRLLHSDYMNMTPRRPGPTRKHYQPYAPPRDFAAYRS	–	~9 fold

Source: patent publication US20230374104A1 (SEATTLE CHILDREN S HOSPITAL DBA SEATTLE CHILDREN S RESEARCH …, published 2023)
